Reference: patent US20190263904A1 (TENEOBIO, published 2019)

B1: anti-CD3 FlicAb ID 304703 (SEQ ID NO:39) (antibody, V domains shown)
VH: QLQLQESGPGLVKPSQTLSLTCTVSGGSISSGGHYWSWIRQHPGKGLEWIGYIHYSGSTYYNPSLKSRVIISVDTSKNQFSLKLRSVTAADTAVYYCARWRHDIFAAYPYYYYGMDVWGQGTLVTVSS
VL: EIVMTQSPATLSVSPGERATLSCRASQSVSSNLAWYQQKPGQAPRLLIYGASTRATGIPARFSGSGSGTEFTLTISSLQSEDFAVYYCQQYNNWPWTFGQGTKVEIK
notes: fully human IgG1 with the fixed kappa light chain
B2: anti-CD3 FlicAb ID 313329 (SEQ ID NO:6) (antibody, V domains shown)
VH: QLQLQESGPGLVKPSETLSLTCTVSGGSISSGGHYWSWIRQHPGKGLEWIGYIHHSGSTNYNPSLKSRITISVDTSKNQFSLKVSSVTAADTAVYYCARWRHDIFAAYPYYYYGMDVWGQGTLVTVSS
VL: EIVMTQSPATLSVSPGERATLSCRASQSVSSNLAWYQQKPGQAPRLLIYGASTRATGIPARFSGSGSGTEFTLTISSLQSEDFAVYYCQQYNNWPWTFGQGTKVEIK
notes: as for B1
B3: anti-CD3 FlicAb ID 313306 (SEQ ID NO:1) (antibody, V domains shown)
VH: QLQLQESGPGLVKPSQTLSLTCSVSGGSIRSGGHYWSWIRQHPGKGLEWIGYIHHSGSTYYNPSLKSRVIISVDTSKNQFSLKLRSVTAADTAIYYCARWRHDIFTTYPYYYYGMDVWGQGTLVTVSS
VL: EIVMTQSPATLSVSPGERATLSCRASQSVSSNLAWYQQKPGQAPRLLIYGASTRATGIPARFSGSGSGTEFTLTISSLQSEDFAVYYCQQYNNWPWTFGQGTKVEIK
notes: fully human IgG1 with the fixed kappa light chain; also called αCD3_F1F

molecular target: T1, cynomolgus CD3 (cynomolgus, UniProt Q95LI5 22-198; Q95LI8 22-171); test: flow cytometry, parental monospecific anti-CD3 on cyno T-cells
T1 construct: Rats were immunised with cynomolgus CD3-epsilon/delta constructs; also called CD3 protein of Cynomolgus macaque; non-human primate CD3 proteins
T1 sequence (Q95LI5 22-198, chain 1 of 2): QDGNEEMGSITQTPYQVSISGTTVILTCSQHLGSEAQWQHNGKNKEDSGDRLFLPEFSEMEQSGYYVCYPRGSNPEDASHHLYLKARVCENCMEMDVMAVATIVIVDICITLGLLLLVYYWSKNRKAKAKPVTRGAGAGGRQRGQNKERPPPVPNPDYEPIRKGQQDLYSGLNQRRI
T1 sequence (Q95LI8 22-171, chain 2 of 2): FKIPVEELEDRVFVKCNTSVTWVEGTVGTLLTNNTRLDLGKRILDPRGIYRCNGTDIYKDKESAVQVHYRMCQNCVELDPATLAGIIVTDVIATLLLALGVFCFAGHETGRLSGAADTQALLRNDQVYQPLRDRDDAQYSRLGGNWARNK

In order of falling “Cyno T-cell bind (MFI)” value:
1. B3  71.7 MFI
2. B1  26.2 MFI
3. B2  17.4 MFI
